In the supplement of paper PMC10567573:

B1: C22orf31 (parent)
chain: YSLELGKAIKQKLWEALCSQGAIS

Variants of: B1
Experiment: protein stability index of a GFP-peptide fusion (GPS, HEK-293T) (PSI 1-6); higher = more stable
Details: c terminus: a fixed tail appended
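Note: lentivirally expressed fusions sorted by FACS into six bins by GFP to DsRed ratio, PSI derived from sequencing read proportions per bin multiplied by bin number.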

Protein stability index, by site and new letter:
Y1: K 3.44, Q 2.81, T 3.1, H 2.79, F 2.8, I 3.2, P 2.12, L 2.91, V 2.56, N 2.16, E 1.22, R 2.88
G6: E 2.03, W 3.02, F 2.28, L 2.97, A 1.94, Y 2.27, N 1.91, H 1.59, D 1.9, R 2.73, K 1.73, Q 1.98, S 1.25, T 1.86, P 1.36, C 2.16
K7: E 2.34, T 2.46, C 1.73, G 1.24, Q 2, P 2.68, V 2.31, Y 2.1, R 1.6, D 2.63, I 3.6
A22: R 3.87, D 1.59, K 3.13, S 3.11
C18: M 2.12, S 1.91, E 2.17, Y 2.52, G 1.53, P 2.26, N 3.44, I 3.32, D 2.09, H 1.66, F 1.64, V 2.29, A 1.69, K 4.02
E15: R 3.18, C 3, K 2.73, F 3, P 2.25, W 1.9, S 2.19, N 3, T 1.64, Q 1.41, G 1.31, H 1.65
W14: N 2.21, P 3.34, C 1.62, Q 1.83, M 2.24, E 2.52, I 3.71, S 1.85, V 3.18, T 1.98, A 1.06, Y 1.78, G 3.06, L 3.37, K 2, H 1.34, D 3.34
A8: H 2.73, N 2.57, V 2.75, D 1.76, P 1.84, G 1.63, Q 1.64, R 2.51, K 1.61, T 1.97, W 1.81, Y 2.97, E 2.17, S 2.19, M 2.31, F 1.7, I 2.24
E4: F 3.85, M 2.42, K 3.04, A 2.96, V 3.23, L 2.69, G 1.56, W 3.56, I 3.45, S 1.88, N 3.57, Y 3.11, C 2.69, Q 3.4, H 2.7, D 3.44
K12: W 2.25, I 3.58, T 2.87, P 1.51, C 2.03, A 3.38, S 1.39, Q 2.26, V 2.49, R 1.53, E 1.85, N 1.93, F 2.11, L 2.66, H 1.98, Y 1.93, D 1.56, G 1.07
L13: S 2.24, R 2.05, F 1.13, E 3.05, I 2.33, D 2.37, Q 1.92, G 1.88, Y 1.56, P 2.04, N 2.63, K 1.47, H 2.48, C 1.35, W 1.94, M 2.17, T 1.88, A 1.41
I23: H 1.63, A 1.75, D 1.62, E 2.37, N 1.7, S 2.85, P 1.6, M 2.22
L17: D 2.62, C 3.17, F 2.17, T 2.26, Q 1.87, A 1.25, V 3.22, S 2.41, M 2.88, I 2.85, K 2.11, P 2.08, G 2.05, R 2.25, W 1.19, Y 2.06, N 1.86, E 1.69, H 1.47
Q20: P 2.21, N 1.62, G 3.45, I 2.97, F 1.95, E 2.79, V 2.58, R 2.99
K10: P 2.27, A 1.52, F 3.08, R 1.15, H 1.95, Q 2.64, M 2.22, C 2.31, E 2.55, I 2.95, Y 1.9, N 2.54, D 1.63
A16: C 2.24, E 1.74, H 1.83, D 1.98, N 1.29, Q 1.89, R 2.1, M 2.69, Y 1.89, W 2.4, P 2.3, T 3.32, G 2.26, S 2.54, L 1.77
Q11: I 1.75, F 3.62, P 1.36, W 3.82, R 3.36, G 3.21, Y 1.92, A 2.47, S 2.01
L5: I 3.07, F 4.05, Y 1.86, M 2.14, G 1.82, N 1.59, P 1.62, S 1.5, K 2.64, E 2.21, Q 1.35, H 2.19, W 1.96, D 2.11, T 1.75, A 1.83
G21: N 3.07, F 2.94, A 4.53, I 4.15, D 1.94
L3: T 1.89, D 1.38, Y 2.44, F 2.43, H 1.66, N 2.19, V 3.15, M 2.18, I 1.79, E 2.53, G 1.43, P 1.64, S 1.75, A 2.39, K 2.03
S19: C 2.31, R 2.46, Q 1.95, D 1.88, N 3.94, A 4.18, F 2.56
S2: N 2.79, P 2.3, M 2.38, H 2.43, C 2.15, D 1.56, Q 1.57, E 1.59, V 1.12, K 2.68, Y 3.28, T 2.86, A 1.79, G 2.35, R 2.42
S24: Q 2.92, T 1.83, N 2.63, R 2.69, Y 3.7, H 2.01, A 2.68
I9: D 2.39, Q 1.94, N 2.07, V 2.26, Y 3.02, C 1.79, K 2.24, A 1.35, H 2.07, E 2.97, F 2.02, S 1.97, G 1.84, P 1.99, T 2.38, M 1.07, R 1.87
